Experimental data as given in a protein production outcome set (Wang et al. 2014).

Assay: label from the status in PepcDB records

Sequence | protein production
MIWSLLKIYVLMLCTISTVYNTFLLIVCVVGCCVQMEEIVFETKDAVDWSYRSEGVVNLVLAYSGSSPTFLGKVMRIKKLRNTRNENRDRSGSCLTTQEKLIWGEIKDLVSCQNKEIVDYLFVKHVMKPLLGHKYVTPGICLPVEKEFLESVKKIVTSQRHSWRANTLSVDTNRSFALLMDDLTIFSHGQVEDHKPCLTVEIKPKCGFLSSSSFIAEENVIKKSISRFEMYQVLKLRENQISQISEYDPLDLFSGSKDRIHKAIKALYSTPQNSLQVFLNGSLVFGGFRGGICKTTSKLELAFEHTLKDFFKTEDDCGLRANAFIELVAETVYASGALDQLLEVQKLDKYNIEGAIHAYYDLVDQPCKACQELESSKLSNQFGSMHSLPQDEKVNILKDFLISSTAIDCSVMISFRPIETGLSRSSSHGNIQLESTKQEFEYKIHFIDLDMRPLKRMEAYHESDKKITKTYQEMLKKKKGDQPRRF | failed
MTASLEIRPFQETDLDFVRQLARQEDFAPGIGDIAIYANTANQGVWLAWQGDMPVGCIAAVKYNLDYGFMGLFVVHPDHRGGGVGRQLWDHALALLADVTCIGLEAAPSMVEFYQRQGFRKDSITTRRQHLRLEESSQHPTRRLLHRNDITIVPLKAISLDAVQAYDERHEISPRPHFLQQWLNHQAGDVFVAMDGSHQCHGYVRIRPCLLPIGQGWRIGPLLAEEPGIASLLLSNAMDRHKGIILIDTPGHNRSARTVAGAKGFRRMGATHRMYKGDLDNGHDQNIYGLACLELG | failed
MLRVTPILLAVLYAFAMYHFSAWRTRRELDARSTELADPALKRLTDRLAAALGVARVPVHIYEIDPVNGLAAPDGRIFITRGFYRKYQSGEVTGEELTSVIAHELGHVALGHSRRRMIDFSGQNAMRTALAMLLGRFIPFFGVWIANMLTTLLAARLSRADEYEADAYAAALLTKAGIGVAPQKALFHKLDALTEQRAGVAPAWLLSHPKTAERIAALDRLEARWQAH | failed
MSTMTATSGRAKRPQKPITLVGVDVYVITEDGIPKFDEYGPFKIEFISNRGTKVWPGYVSPDLMLVNWYRCRFTATRPVTDKDVDAFVGELGKKHLWSAVQKLWNYGDEAGFSKAY | failed
MRKRARIIYNPTSGKELFKRELPDALIKLEKAGYETSAYATEKIGDATLEAERAMHENYDVLIAAGGDGTLNEVVNGIAEKPNRPKLGVIPMGTVNDFGRALHIPNDIMGALDVIIEGHSTKVDIGKMNNRY | failed
GTVSATSPNKCKRPMNAFMLFAKKYRVEYTQMYPGKDNRAISVILGDRWKKMKNEERRMYTLEAKALAEEQKRLNPDCWK | not failed
MSYQNANYSAFYVSEPFSESNLGANSTHDFVYYNMLRMWKGEDNSFPFNDAHDKTYNVRDGSDWEKTLKPRLHTRLDNSKNIILFLSSITANSRALREEMNYGIGTKGLPVIVIYPDYDKKSDIVDSNGNFKKQIKDLWDKLPAFRDNMSSVATLHIPCTKSVIISALNNEDFMVNTMADAEKYYYKP | not failed
MNEHNITNTSLALSMLLVVVAMLISHKEKLALEKDILWSVCRAVIQLIIVGYVLKYIFGVNHAALTLLMVLFICFNAAWNAQKRSKYIDKAFLSSFIAITVGAGLTLTVLVLTGSIEFAPMQVIPIAGMVAGNAMVAVGLCYNQLGLRFHSEQQQIQEKLSLGATPKMASAGLIRDSIRASLIPTIDSAKTVGLVSLPGMMSGLIFAGIDPVKAIKYQIMVTFMLLSTASLSTIIACYLTYRKFYNSRHQLVVMPLKKS | failed
MRFSREALLELEASRLAPYAQKARDTRGRAHPEPESLYRTPYQKDRDRILHTTAFRRLEYKTQVLPGWAGDYYRTRLTHTLEVAQVSRSIARALGLNEDLTEAIALSHDLGHPPFGHTGEHVLNALMQDHGGFEHNAQALRILTHLEVRYPGFRGLNLTYEVLEGIATHEAAYSPGFKPLYEGQGTLEAQVVDLSDAIAYAAHDLDDGLRAGLLHPEELKEVELLQALALEEGLDLLRLPELDRRVLVRQLLGYFITAAIEATHRRVEEAGVQSAEAVRRHPSRLAALGEEAEKALKALKAFLMERFYRHPEVLRERRKAEAVLEGLFAAYTRYPELLPREVQAKIPEEGLERAVCDYIAGMTDRFALEAYRRLSP | not failed
MKSWTILLSTLCLFSCNQQENKFEKYVDPLIGTDIRIVQGKDKNSTEERGQIMPAVGVPHGMTNWVAQTQATEQKCHPPYYYFQDAIQGFRASHWMNGSCTQDYGSITIMPLSNKLEIDPVKRASTFDHTQETATPSYYSVDLNDYDIHAELTGLSRAGIMQFSFEQDGDHYIVIEPNSDEGVAFVEIDPEKKEITGYNPVHRIYQGYGKEAGFSGHFVIQLNEEIADYGVWDSTTITPGRKSAKGQKHAVGAWIKLTSDKPGKILVKVATSFTSIDNARKNLAAEIPGWNFNEVRQASSDIWNQALGQIAVKGNNEKEKVKFYSALYNAHFLPRAFSDVDGSYPRFDGDGQIMKMDHGTYYCDFSQWDTYRAVHPLFSILTPSRNGDMAHSLVLKGQQGGWLPIFPSWNSYTAAMIGDHCIAMIGDAIVKDTPGFDYEEAYTLMRKNAFEANPDSGSYRDGKGRRAMESYLKYNYVPLEDQVTEAFHRREQVSRTLEYAYDDFVLAQVAKKLGKTDDYKALIKRAENYRNVIDPETGYARGRHADGTWIEPFDPFASTSFICEGTPYHYTWYAPQDIAGLIRHMGGKERFINRLDNFFEGNYYWHGNEPGHHIAYLFAYAGEPWKTQKWVHDIINREYFTTPDGLSGNDDAGQMSSWLVFSMVGFYPVCPGMPYYVIGSPSFEESVITLENGKKFTIEAKGASEKNIYIQSATLNGQPYNKSYILHKDIMNGGILSFVMGDSPNKEWASSAGSLPPSMGL | failed
MPANPRILETMSQLFVSFPHCATLGFEYVGTDGRKPTLKLQWREDLVGNPATGILHGGVITSLVDTCSAIAVTAHLPELETIATLDLRIDYLKSATPGKAIHCTAECYRLASQIAFTRAVCYHDNPADPIAHGVATFMRESSLEHHHHHH | failed
MAILEYIMLLFIGLIAGTVGSLVGLGGGIIIVPLLIGLHSLSPQLAVGTSMVTVVFTGLSSTLTYMKHKRVDYKSGLILFIGSGPGGIIGSWANKFLNQDTFSLYFGIFLIFVSILLMLRDKLKPLSLSNTSVIKRSFTDNDGNTVHYQFPPFLAIFIAFIVGFISGLFGIGGGALLVPAMMLLFAFPAHIAVATSMFIVFLSAIVSSATHISLGNVSWIYALILIPGAWIGGKIGAYINTKLSGNAVINLLRITLIILGTRLIIISLL | failed
MVKVLILGQGYVASTFVAGLEKLRKGEIEPYGVPLARELPIGFEDIKIVGSYDVDRAKIGKKLSEVVKQYWNDVDSLTSDPEIRKGVHLGSVRNLPIEAEGLEDSMTLKEAVDTLVKEWTELDPDVIVNTCTTEAFVPFGNKEDLLKAIENNDKERLTATQVYAYAAALYANKRGGAAFVNVIPTFIANDPAFVELAKENNLVVFGDDGATGATPFTADVLSHLAQRNRYVKDVAQFNIGGNMDFLALTDDGKNKSKEFTKSSIVKDILGYDAPHYIKPTGYLEPLGDKKFIAIHIEYVSFNGATDELMINGRINDSPALGGLLVDLVRLGKIALDRKEFGTVYPVNAFYMKNPGPAEEKNIPRIIAYEKMRIWAGLKPKWL | not failed
MEVGMIPRVYLGHEWFGAERILSEYQVPEDCGAQVLFLGIPRNAPEDGGNIEALEYEAYPEMAIKEMEKIRQETIEKFGVKEVFIHHRLGLVKIGEPSFLVLAVGGHREETFKACRYAVDETKKRVPIWKKEIFKEGKGEWVLGEKKNASGQTK | not failed
MNIQLSPLEARVIGCLIEKEVTTPDHYPLTLNSLTTACNQKSNREPVLNLSEAEVQDTVEGLIARRLVSDESSFNSRTSKYQHRFCNTEFGDLKLNQQELGLICCLLLRGAQTPGELRTRTNRLCTFTDVKETEAVLERLANRDSGALVVKLPREPGKRESRYHHLFCGEVDMAA | not failed
MKNDRKARLILSIFRYGKNHMEKETFYHKVNYGIYKILNAVFVIGFFGTELQASQSISNNIILFHPYGIVVSGEATLGDEVVIRQQVTIGNKGTGEGADDCPIIGDRVDIGAGAKIIGGITIGENSKIGANAVVTKSFPANSILVGVPARNIASKAMNGLEHHHHHH | not failed
MPIPKSAKSDYTKEQKDLVGNICQCKDFYKILNVDKKASPDEIRIAFRKRIREVHPDKCKHPSATEASKVVNNAFSLLMDPAKRRQYDLQ | not failed
WQWDLATNKFIYSDNQHRLLGVERDSFESSNDAFINFVHPEDRHVIKNGERMVLDEQQSSVAFFRVIRKDGQMRYFKSIGKLLTDSSGNKILIGINNDITEEH | failed
MPTIRINKLTDPVVFLHILFFLIIASSSLTYWKMSDYAVNQSWDAYFYKYSDYLDLVPTWEKILKDAFSLVLLLASIYFPRRKILDFSPNINLQRYYLSFILLFFLSLSNLFASRDVTNLTLFTIVAVIRPFLITASLLFFCHKHLNFFYFRIILECVNIIGIIQVYHSFLQRNSAIINNGLDWLHSGSARSVGTFADPNTLGRFLALLIMVNLFMLPPNIIRFFLIISYGIALFFTGSRASLLIIGIFILLFVAIKLSRQSIASTRAKNLTFAFLLTVPLLQFLLLRINLISNRADDTASPLQDGRYHILFNLINRLNPYEFIFGNYLGYGSNALILTGYDGSNFLSDSTPASLIGQFGITGLLLFILIVINLFKQTPRHININNSQDYLVLTGDLLQSRNALSFYLIISCFTTIIFESYAVIPILLGLIFYDNLDLKNIKF | failed
MTVLSPSLPHAAGIDAALVENPWLGLRRSGRYFQNAETEALFARALGYARAGVCVHLAGPAGLGKTTLALRIAQALGRPVAFMTGNEWLGSRDFIGGEIGQTVTSVVDRYIQSVRRTEQSARIDWKESILGQAMRCGQTFIYDEFTRASPEANAALLSVLEEGVLVSTDGASRHQYIEAHPDFRVLLTSNPHEYQGVKAAPDALIDRMVTLRLEEPSAPTLAGIVALRSGLDPATARRIVDLILSVQRSGEMQAPPSMRTAILVARLAAPLRLAGRLSDAALAEIAADVLRGRGLEADAAAFEAKLAAPTPGETARLEHHHHHH | failed
MAFDAARYVHRYYASLAPAPGNEYPRLRAWEYLWEYVWDPSRSWDDLTAPEQLDTTALHLGFYLANWGMFRGSSGLLQNSNLDLMKALARQLFSGAGPELFELSLVDFAGNGARLAHNRKLLETVLGSMDALSSRVSWTDTLKSKILLGVWGEFPALDRHYVAACRALYPRRGLTSVNGGTLTALHRLIGEERLSFPRLETARKGLLYPTGRLADMAFFQYGLENALEHHHHHH | not failed
MMKEFTPAPDSASIVSVTDRVKPVALGMGVTSVHFLGDRAAFVGGEENVAFVDSQGEITTVAVHGGGILSTASDGKRLVMGGDDGKVVSLDAKGEVTLLATDPKRRWIDAVALHADGAFAWSAGKTATVKSGKTEEKSLEVPSTVGGLAFAPKGLRLAIAHYNGATLWFPNMAASAEFLPWAGSHHAVTFSPDNKFLVTAMHEPALHGWRLADNRHMRMTGYPGRVRSMSWSAGGKALATSGADTVILWPFGSKDGPMGKEPAMLAPLQARVSVVACHPKNDILAAGYSDGTVLMVRLEDGAEILVRRNGTPPVAALAWNAKGTLLAFADENGDGGLLEL | failed
SHPCFVQGRPELLSQIKRKQSARTVEDKQVNEQTQQNLEVVMAEMRAMREKAKNMEDKMNKLTKENRDMWTQMGSMRQQHARQQQYFKKLLHFLVSVMQPGLSKRVAKRGVLEIDFCAANGTAGPNSKRARMNSEEGPYKDVCDLLESLQRETQEPFSRRFTNNEGPLISEVTDEFGNSPVGRGSAQDLFGDTFGAQSSRYSDGGATSSREQSPHPIISQPQSNSAGAHGANEQKPDDMYMGSGPLTHENIHRGISALKRDYQGASPASGGPSTSSSAPSGAGAGARMAQKRAAPYKNATRQMAQPQQDYSGGFVNNYSGFMPSDPSMIPYQPSHQYLQPHQKLMAIEDQHHPTTSTSSTNADPHQNLYSPTLGLSPSFDRQLSQELQEYFTGTDTSLESFRDLVSNHNWDDFGNNVPLDDDEEGSEDPLRQLALENAPETSNYDGAEDLLFDNEQQYPENGFDVPDPNYLPLADEEIFPHSPALRTPSPSDPNLV | not failed
